Consider seven molecules from US6716960B2, “Mch3, a novel apoptotic protease, nucleic acids encoding and methods of use” (Idun Pharmaceuticals, Inc., priority 1995, dated 2004).

One test concerns the target T1, Mch3α (Homo sapiens, UniProt P55210).
T1 construct: This assay employs Mch3 polypeptide expressed in an active, processed form recombinantly in E. coli; becomes active following proteolytic cleavage into two subunits of approximately 17 kD (p17) and 12 kD (p12); GST (N, cleaved yes); made in house; host or cells: E. coli (DH5α), pGEX-2T; bacterial lysates
T1 sequence (P55210 24-198 limits assumed): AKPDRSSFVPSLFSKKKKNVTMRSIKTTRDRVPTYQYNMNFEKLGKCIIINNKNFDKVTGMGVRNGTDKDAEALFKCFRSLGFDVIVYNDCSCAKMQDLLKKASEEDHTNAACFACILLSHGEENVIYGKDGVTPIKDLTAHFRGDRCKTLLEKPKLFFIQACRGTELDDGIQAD
T1 sequence (P55210 207-303 limits assumed): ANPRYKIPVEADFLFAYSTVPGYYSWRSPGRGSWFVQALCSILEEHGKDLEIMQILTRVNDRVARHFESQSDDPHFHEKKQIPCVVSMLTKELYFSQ
The experiment in a line: Continuous fluorometric assay of recombinant Mch3α with DEVD-AMC substrate. The class given is biochemical. Here is the method:
The kinetic properties of the bacterially expressed recombinant Mch3α and CPP32 were determined using the tetrapeptide substate DEVD-AMC in a continuous fluorometric assay. The DEVD-AMC substrate is the poly(ADP-ribose)polymerase (PARP) cleavage site P1-P4 tetrapeptide (Nicholson et al., Nature 376:37-43 (1995)). Briefly, activity of Mch3α and CPP32 was measured using bacterial lysates in ICE buffer (25 mM HEPES, 1 mM EDTA, 5 mM DTT, 0.10% CHAPS, 10% sucrose, pH 7.5) at room temperature (24-25° C.).

Test [1] deals with T2, CPP32 (Homo sapiens, UniProt P42574).
T2 construct: CPP32 is cleaved at Asp28 and Asp175 to generate two polypeptides of molecular masses of 17 kDa (p17) and 12 kDa (p12); GST (N, cleaved yes); made in house; host or cells: E. coli; bacterial lysates
T2 sequence (P42574 29-175 limits assumed): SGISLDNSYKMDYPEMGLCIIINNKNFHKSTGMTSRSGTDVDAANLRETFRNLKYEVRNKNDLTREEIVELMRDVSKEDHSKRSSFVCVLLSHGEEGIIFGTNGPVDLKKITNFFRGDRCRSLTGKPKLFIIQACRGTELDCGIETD
T2 sequence (P42574 176-277 limits assumed): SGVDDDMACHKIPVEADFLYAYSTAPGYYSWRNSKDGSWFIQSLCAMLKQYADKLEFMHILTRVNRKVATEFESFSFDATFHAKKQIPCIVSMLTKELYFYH
The experiment in a line: Continuous fluorometric assay of recombinant CPP32 with DEVD-AMC substrate. The class given is biochemical. As to conditions: for Km: recombinant CPP32, bacterial lysate, ICE buffer pH 7.5, 24-25° C., substrate = label.

The target in test [2] is T2, CPP32. As to conditions: purified human CPP32, reported by Nicholson et al.; cited from earlier work.
A further test deals with Sf9 cells. The experiment in a line: Induction of apoptosis in Sf9 cells infected with recombinant baculoviruses. The note with it: for Induction of apoptosis: expressed separately in Sf9 cells.

One may read the Ki as the dissociation constant of the complex between target and ligand, obtained from inhibition or displacement. In general, Km refers to the concentration of substrate that gives half-maximal velocity.

Where two headings read alike, the source gives them in different places.

Regarding `CC(=O)N[C@@H](Cc1ccc(O)cc1)C(=O)N[C@H](C(=O)N[C@@H](C)C(=O)N[C@H](C=O)CC(=O)O)C(C)C` [YVADaldehyde, YVAD-CHO], the values for the Ki on Mch3α and at CPP32 [1] were > 10 µM and 8.5 µM, respectively.

In the case of `CC(=O)N[C@@H](CC(=O)O)C(=O)N[C@@H](CCC(=O)O)C(=O)N[C@H](C(=O)N[C@H](C=O)CC(=O)O)C(C)C` [DEVDaldehyde, DEVD-CHO], the Ki at Mch3α is 0.0018 µM.

With DEVD-AMC [DEVDamc], the Km in the test with CPP32 [2] was 9.7 ± 1 µM; with Mch3α (bacterial lysate, ICE buffer pH 7.5, 24-25° C., substrate = label), 51 µM; in the test with CPP32 [1] it was 13 µM.

On to “YVADamc: YVAD tetrapeptide amc substrate listed in Table I”, for which the Km with CPP32 [1] was > 500 µM.

B1: truncated Mch3α (amino acids 199-303): truncated Mch3α that encodes only the p12 subunit (protein)
chain: SGPINDTDANPRYKIPVEADFLFAYSTVPGYYSWRSPGRGSWFVQALCSILEEHGKDLEIMQILTRVNDRVARHFESQSDDPHFHEKKQIPCVVSMLTKELYFSQ
As to B1, the Induction of apoptosis result in the test with Sf9 cells is given as “unable to induce apoptosis”.

B2: Mch3α: full length apoptotic cysteine protease, 303 amino acids (SEQ ID NO: 2), expressed from recombinant baculovirus (protein)
chain: MADDQGCIEEQGVEDSANEDSVDAKPDRSSFVPSLFSKKKKNVTMRSIKTTRDRVPTYQYNMNFEKLGKCIIINNKNFDKVTGMGVRNGTDKDAEALFKCFRSLGFDVIVYNDCSCAKMQDLLKKASEEDHTNAACFACILLSHGEENVIYGKDGVTPIKDLTAHFRGDRCKTLLEKPKLFFIQACRGTELDDGIQADSGPINDTDANPRYKIPVEADFLFAYSTVPGYYSWRSPGRGSWFVQALCSILEEHGKDLEIMQILTRVNDRVARHFESQSDDPHFHEKKQIPCVVSMLTKELYFSQ
Turning to B2, in the test on Sf9 cells (expression in Sf9 cells, 42-48 h postinfection), the Cells undergoing apoptosis entry is listed as “approximately 50%”.

B3: truncated Mch3α (amino acids 1-198): truncated Mch3α that encodes only the p20 subunit (protein)
chain: MADDQGCIEEQGVEDSANEDSVDAKPDRSSFVPSLFSKKKKNVTMRSIKTTRDRVPTYQYNMNFEKLGKCIIINNKNFDKVTGMGVRNGTDKDAEALFKCFRSLGFDVIVYNDCSCAKMQDLLKKASEEDHTNAACFACILLSHGEENVIYGKDGVTPIKDLTAHFRGDRCKTLLEKPKLFFIQACRGTELDDGIQAD
Turning to B3, the Induction of apoptosis result in the test with Sf9 cells is reported as “unable to induce apoptosis”.
